The results in this text go back to paper PMC11892807.

Test [1] deals with CA(A14C/E45C/W184A/M185A) (HIV-1). The test is described as follows: cross-linking; as the DMSO reaction, but 2 uM LEN pre-incubated with monomeric CA (1 uM) before concentration to 125 uM and sequential dialysis out of beta-mercaptoethanol; products on SDS-PAGE.
Test [2] shares this target. The experiment in a line: cross-linking; disulfide cross-linking of monomeric CA with DMSO, by sequential dialysis out of beta-mercaptoethanol at 4 C (final 20 mM Tris-HCl pH 8, 40 mM NaCl, no reducing agent); products on SDS-PAGE; legend: 1 uM CA, methods: diluted to 1 uM, then concentrated to 125 uM.
For test [3] the target is unchanged. The test is described as follows: mass photometry; no ligand added; 2 uL of sample into 18 uL buffer, 60 s at 331 Hz; unliganded WT CA and pre-formed cross-linked pentamers and hexamers as controls.
The target in test [4] is CA(N21C/A22C/W184A/M185A) (HIV-1). The test is described as follows: cross-linking; disulfide cross-linking of monomeric CA with DMSO, by sequential dialysis out of beta-mercaptoethanol at 4 C (final 20 mM Tris-HCl pH 8, 40 mM NaCl, no reducing agent); products on SDS-PAGE; legend: 1 uM CA, methods: diluted to 1 uM, then concentrated to 125 uM.
Test [5] has the same target. The test is described as follows: mass photometry; no ligand added; 2 uL of sample into 18 uL buffer, 60 s at 331 Hz; unliganded WT CA and pre-formed cross-linked pentamers and hexamers as controls.

For orientation: stoichiometry N means the number of molecules, sites or subunits per partner or assembly. Take “CA(A14C/E45C/W184A/M185A) (natural protein)”: the stoichiometry N in test [1], in test [2] and in test [3] was 6 in each case.

Consider “CA(N21C/A22C/W184A/M185A) (natural protein)”, for which the stoichiometry N in test [4] and in test [5] was 5 each time.
